These results are taken from paper doi:10.1101/2020.10.05.327064 (bioRxiv, 2020).

Numbering of substitutions follows the chain as printed. Numbers in names are those of the source.

Series [1] addresses T1, Human Hsf1 wild type (human), Q00613.
T1 chain: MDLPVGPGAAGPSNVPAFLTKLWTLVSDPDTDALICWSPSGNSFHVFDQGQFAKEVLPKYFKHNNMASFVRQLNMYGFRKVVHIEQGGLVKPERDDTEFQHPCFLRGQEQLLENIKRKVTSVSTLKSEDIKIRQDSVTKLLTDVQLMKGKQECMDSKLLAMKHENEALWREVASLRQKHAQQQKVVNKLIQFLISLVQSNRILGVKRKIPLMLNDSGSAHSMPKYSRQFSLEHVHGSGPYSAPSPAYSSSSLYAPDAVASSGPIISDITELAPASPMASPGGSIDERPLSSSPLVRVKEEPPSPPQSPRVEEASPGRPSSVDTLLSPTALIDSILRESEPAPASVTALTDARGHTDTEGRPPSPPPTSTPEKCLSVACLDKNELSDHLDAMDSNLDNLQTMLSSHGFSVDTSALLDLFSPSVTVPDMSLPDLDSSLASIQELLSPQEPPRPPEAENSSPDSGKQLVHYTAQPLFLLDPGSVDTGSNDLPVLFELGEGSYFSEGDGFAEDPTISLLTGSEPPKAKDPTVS
Nature of the series: SEC. The following applies: remark: other sources report otherwise.

The series “SEC” deals with the molecule itself. Nature of the series: SEC.

B1: Human Hsf1 wild type, Q00613 1-529 (natural protein)
chain: T1 chain
As usually defined, the stoichiometry N is the number of molecules, sites or subunits per partner or assembly. In turn, B1 came in with a stoichiometry N in series [1] of 3.

B2: Hsf1-S303E,S307E (natural protein)
chain: T1 chain with S303E, S307E
For B2, the “stoichiometry N” value in the series “SEC” worked out at 3.
